Experimental data: patent US20040116342A1 (INSTITUT PASTEUR, published 2004)
Where no end group is shown, it is not given here.

Tests used:
[1] = target: T1, rat Neutral EndoPeptidase 24-11 (NEP), membrane-bound, in rat tissue membrane preparations and fresh tissue … (rat, UniProt P07861 2-750); assay: cell-based or functional assay
T1 sequence (looked up): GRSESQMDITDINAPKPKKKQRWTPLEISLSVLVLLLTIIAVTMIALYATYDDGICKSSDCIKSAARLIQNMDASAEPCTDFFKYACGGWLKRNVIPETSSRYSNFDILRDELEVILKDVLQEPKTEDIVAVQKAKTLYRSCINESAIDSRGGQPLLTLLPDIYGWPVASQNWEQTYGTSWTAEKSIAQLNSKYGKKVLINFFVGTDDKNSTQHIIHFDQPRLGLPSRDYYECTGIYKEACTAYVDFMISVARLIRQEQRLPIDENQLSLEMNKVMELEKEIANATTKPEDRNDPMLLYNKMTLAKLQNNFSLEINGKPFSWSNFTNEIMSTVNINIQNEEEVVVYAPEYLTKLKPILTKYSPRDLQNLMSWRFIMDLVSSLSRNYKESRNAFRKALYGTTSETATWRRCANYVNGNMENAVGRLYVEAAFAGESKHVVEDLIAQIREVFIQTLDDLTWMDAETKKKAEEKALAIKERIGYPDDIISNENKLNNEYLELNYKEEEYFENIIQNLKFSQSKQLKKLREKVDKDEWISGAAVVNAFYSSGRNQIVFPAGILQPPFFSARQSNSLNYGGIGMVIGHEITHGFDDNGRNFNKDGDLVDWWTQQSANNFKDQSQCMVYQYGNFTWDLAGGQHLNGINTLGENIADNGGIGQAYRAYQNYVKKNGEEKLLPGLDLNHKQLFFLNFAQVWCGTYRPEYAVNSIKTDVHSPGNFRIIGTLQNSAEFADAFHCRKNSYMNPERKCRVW

[2] = target: T2, purified rabbit renal NEP (rabbit, UniProt P08049 2-750, limits assumed); assay: cell-based or functional assay
T2 sequence (looked up): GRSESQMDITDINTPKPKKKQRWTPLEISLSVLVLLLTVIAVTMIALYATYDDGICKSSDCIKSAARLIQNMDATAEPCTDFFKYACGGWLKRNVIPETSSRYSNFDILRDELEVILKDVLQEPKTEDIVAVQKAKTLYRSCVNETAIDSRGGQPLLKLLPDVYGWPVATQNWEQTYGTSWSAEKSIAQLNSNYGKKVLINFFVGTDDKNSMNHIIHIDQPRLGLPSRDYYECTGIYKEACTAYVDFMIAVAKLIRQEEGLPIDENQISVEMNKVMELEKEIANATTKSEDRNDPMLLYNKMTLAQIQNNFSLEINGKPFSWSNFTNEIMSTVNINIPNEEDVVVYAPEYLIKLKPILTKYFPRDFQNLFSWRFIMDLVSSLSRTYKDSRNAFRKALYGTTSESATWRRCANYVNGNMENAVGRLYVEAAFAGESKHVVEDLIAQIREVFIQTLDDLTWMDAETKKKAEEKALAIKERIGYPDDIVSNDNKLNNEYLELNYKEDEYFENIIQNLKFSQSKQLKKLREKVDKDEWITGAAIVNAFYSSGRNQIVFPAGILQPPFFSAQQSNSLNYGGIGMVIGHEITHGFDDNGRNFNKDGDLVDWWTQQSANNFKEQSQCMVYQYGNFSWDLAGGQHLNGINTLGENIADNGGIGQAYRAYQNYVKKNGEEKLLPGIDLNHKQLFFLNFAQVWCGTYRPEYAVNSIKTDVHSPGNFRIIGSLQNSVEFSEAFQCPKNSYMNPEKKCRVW

[3] = target: T3, modified tritiated Substance P: [(3,4 3H) Pro2-Sar9-Met(O2)11]-Substance P, P20366
T3 chain: RPKPQQFFGLM

[4] = target: T4, SMR1-QHNPR (SMR1-Pentapeptide)
T4 chain: QHNPR

B1: SMR1-QHNPR (SMR1-Pentapeptide) (peptide)
peptide: QHNPR
modifications: also: Gln form interconverts with pGlu form by N-terminal cyclization
- IC50 (concentration of the inhibitor reducing by half the degradation of 3H-substance P) on rat spinal cord membrane preparations [1]: ~100 nM
- IC50 of inhibition of 3H substance-P degradation by rat kidney membranes [1]: 500 to 1000 nM
- inhibitory potency (IC50) with rat spinal NEP [1]: 400 nM
- inhibitory potency (IC50) with purified rabbit renal NEP and synthetic specific fluorogenic substrate [2]: 600 nM

B2: purified rabbit renal NEP (protein)
chain: GRSESQMDITDINTPKPKKKQRWTPLEISLSVLVLLLTVIAVTMIALYATYDDGICKSSDCIKSAARLIQNMDATAEPCTDFFKYACGGWLKRNVIPETSSRYSNFDILRDELEVILKDVLQEPKTEDIVAVQKAKTLYRSCVNETAIDSRGGQPLLKLLPDVYGWPVATQNWEQTYGTSWSAEKSIAQLNSNYGKKVLINFFVGTDDKNSMNHIIHIDQPRLGLPSRDYYECTGIYKEACTAYVDFMIAVAKLIRQEEGLPIDENQISVEMNKVMELEKEIANATTKSEDRNDPMLLYNKMTLAQIQNNFSLEINGKPFSWSNFTNEIMSTVNINIPNEEDVVVYAPEYLIKLKPILTKYFPRDFQNLFSWRFIMDLVSSLSRTYKDSRNAFRKALYGTTSESATWRRCANYVNGNMENAVGRLYVEAAFAGESKHVVEDLIAQIREVFIQTLDDLTWMDAETKKKAEEKALAIKERIGYPDDIVSNDNKLNNEYLELNYKEDEYFENIIQNLKFSQSKQLKKLREKVDKDEWITGAAIVNAFYSSGRNQIVFPAGILQPPFFSAQQSNSLNYGGIGMVIGHEITHGFDDNGRNFNKDGDLVDWWTQQSANNFKEQSQCMVYQYGNFSWDLAGGQHLNGINTLGENIADNGGIGQAYRAYQNYVKKNGEEKLLPGIDLNHKQLFFLNFAQVWCGTYRPEYAVNSIKTDVHSPGNFRIIGSLQNSVEFSEAFQCPKNSYMNPEKKCRVW
- initial velocity of substance P hydrolysis by purified rabbit renal NEP (Vi) [3]: Vi=140 pM/min/µg enzyme

B3: rat Neutral EndoPeptidase 24-11 (NEP), membrane-bound, in rat tissue membrane preparations and fresh tissue slices (protein)
chain: GRSESQMDITDINAPKPKKKQRWTPLEISLSVLVLLLTIIAVTMIALYATYDDGICKSSDCIKSAARLIQNMDASAEPCTDFFKYACGGWLKRNVIPETSSRYSNFDILRDELEVILKDVLQEPKTEDIVAVQKAKTLYRSCINESAIDSRGGQPLLTLLPDIYGWPVASQNWEQTYGTSWTAEKSIAQLNSKYGKKVLINFFVGTDDKNSTQHIIHFDQPRLGLPSRDYYECTGIYKEACTAYVDFMISVARLIRQEQRLPIDENQLSLEMNKVMELEKEIANATTKPEDRNDPMLLYNKMTLAKLQNNFSLEINGKPFSWSNFTNEIMSTVNINIQNEEEVVVYAPEYLTKLKPILTKYSPRDLQNLMSWRFIMDLVSSLSRNYKESRNAFRKALYGTTSETATWRRCANYVNGNMENAVGRLYVEAAFAGESKHVVEDLIAQIREVFIQTLDDLTWMDAETKKKAEEKALAIKERIGYPDDIISNENKLNNEYLELNYKEEEYFENIIQNLKFSQSKQLKKLREKVDKDEWISGAAVVNAFYSSGRNQIVFPAGILQPPFFSARQSNSLNYGGIGMVIGHEITHGFDDNGRNFNKDGDLVDWWTQQSANNFKDQSQCMVYQYGNFTWDLAGGQHLNGINTLGENIADNGGIGQAYRAYQNYVKKNGEEKLLPGLDLNHKQLFFLNFAQVWCGTYRPEYAVNSIKTDVHSPGNFRIIGTLQNSAEFADAFHCRKNSYMNPERKCRVW
- fold rise of the apparent Km of the enzyme for substrate (substance P), rat renal membranes [4]: raising the apparent Km of the enzyme for substrate by 2-5 fold
